Read-outs that look alike come from different tables or passages of the source.
T1: human OX40 expressed on cells (293T-OX40, Jurkat-OX40) (human, UniProt P43489 29-277)
T1 construct: whole, on cells; the construct transfected into the cells is not described; also called CD134; ACT35
T1 sequence (looked up): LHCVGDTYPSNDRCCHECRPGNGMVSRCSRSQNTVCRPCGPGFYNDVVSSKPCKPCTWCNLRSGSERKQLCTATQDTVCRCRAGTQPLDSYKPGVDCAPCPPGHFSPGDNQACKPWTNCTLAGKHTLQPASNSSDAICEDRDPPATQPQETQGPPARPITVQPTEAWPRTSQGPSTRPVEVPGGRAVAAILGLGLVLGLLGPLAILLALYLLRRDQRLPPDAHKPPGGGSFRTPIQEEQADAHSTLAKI

T2: OX40-ECD-hFc (human, UniProt P43489 29-214)
T2 construct: extracellular domain; Coated on the ELISA plate; also called OX40-hFc protein; not shown: human Fc (hFc)
T2 sequence (looked up): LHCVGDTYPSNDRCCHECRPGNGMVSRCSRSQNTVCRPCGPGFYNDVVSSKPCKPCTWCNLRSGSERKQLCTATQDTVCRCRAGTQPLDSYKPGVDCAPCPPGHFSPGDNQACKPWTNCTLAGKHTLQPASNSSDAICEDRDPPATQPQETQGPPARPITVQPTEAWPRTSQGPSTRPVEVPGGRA


Columns and labels:
[1] = target: T1, human OX40 expressed on cells …; experiment: FACS on 293T-OX40 cells
Experimental: (§1) (3) FACS Screening for Antibodies Binding to OX40-ECD. 50 μL of the hybridoma supernatant tested positive in the ELISA tests was pipetted and mixed with 50 μL of 293T-OX40 cells (1×10⁵ cells/well), and the mixture was added to a 96-well plate with a U-shaped bottom and incubated for 1 hour. After the mixture was centrifuged and washed twice with FACS buffer (PBS+3% FCS), PE-labeled goat anti-mouse secondary antibody (Biolegend, Cat. No.: 405307) diluted at 1:400 was added, the mixture was incubated for 30 minutes, and washed with FACS buffer, and then PE signal of 293T-OX40 cells was detected using a BD C6 flow cytometer.
(§2) The activity of the purified antibody sample to bind OX40 and block the binding of OX40 to OX40L was tested via ELISA and FACS. Specific methods are described in steps (2), (3) and (4) in Example 1. 6 monoclonal OX40 hybridoma antibodies 1G2, 3G4, 9G7, 177G5, 118A10 and 119H2 were tested. Test results are shown in Table 1 to Table 3 and FIGS. 1 to 3.

[2] = target: T1, human OX40 expressed on cells …; experiment: cell-based or functional assay
OX40-ECD-hFc = target: T2, OX40-ECD-hFc; experiment: ELISA, OX40-ECD-hFc coated on plate
Experimental: (2) ELISA Screening for Antibodies Binding to OX40-ECD. 96-well ELISA plate (Corning, Cat. No.: 9018) was inoculated with OX40-ECD-hFc, left at 4° C. overnight, and washed 3 times with wash buffer (PBS+0.05% Tween 20), then blocking buffer (PBS+1% BSA (Sigma, Cat. No.: V90093)) was added, and the 96-well ELISA plate was incubated for 1 hour and washed 3 times; hybridoma supernatant was added, the 96-well ELISA plate was incubated for 1 hour and washed 3 times; and 100 μL of goat anti-mouse IgG secondary antibody (Thermo, Cat. No.: 31432) diluted at 1:10000 was added to each well, and the 96-well ELISA plate was incubated at room temperature for 1 hour and washed 3 times. 100 µL of TMB (Biosubstrate Technologies, Cat. No.: ES-002) was added to each well and left for 3 minutes for color development, then a stop solution (2N H₂SO₄) was added at a dose of 100 μL/well to terminate the reaction, and the OD450 signal of each sample was measured with a Tecan Spark microplate reader.
as §2

[3] = target: T1, human OX40 expressed on cells …; experiment: cell-based or functional assay; remark: listed apart in the source
[4] = target: T1, human OX40 expressed on cells …; experiment: cell-based or functional assay; remark: listed apart in the source
[5] = target: T1, human OX40 expressed on cells …; experiment: FACS on 293T-OX40 cells; remark: listed apart in the source
Experimental: as §1
Purified humanized antibody samples were tested for their binding to OX40 using FACS and for their ability to block the OX40L/OX40 signaling pathway using a reporter gene assay. The specific methods are referenced from Example 1. The results are shown in Table 6, Table 7, FIG. 7 and FIG. 8. The effects of the humanized antibodies on the function of primary T cells were tested, including an MLR response test of the inhibitory effect of the OX40 humanized antibody on the proliferation of CD4+ T cells, and a test of the inhibitory effect of the OX40 humanized antibody on the proliferation of CD8+ T cells induced by CEF.

| EC50 [1] [µg/mL] | IC50 of reporter gene assay (NF-kB-luciferase, Jurkat-OX40 cells + OX40L) [2] [µg/mL] | EC50 (OX40-ECD-hFc) [µg/mL] | EC50 of ADCC activity (LDH release, Jurkat-OX40 target cells + PBMC) [3] [µg/mL] | IC50 of reporter gene assay (NF-kB-luciferase, Jurkat-OX40 cells + OX40L) [4] [µg/mL] | EC50 [5] [µg/mL] | Binder |
| --- | --- | --- | --- | --- | --- | --- |
| – | – | – | 0.00236 | 0.309 | 0.096 | humanized anti-OX40 antibody hu177G5-DE (antibody, V domains shown, Constructed as human IgG1 with constant region Ser239, Ala330 and Ile332 mutated to Asp, Leu and Glu; also called humanized antibody 177G5; combination D') VH: QVQLVESGGGLVKPGGSLRLSCAASGFTFSDFYMYWIRQAPGKGLEWVATISDGGSYTYYPDIVKGRFTISRDNAKNSLNLQMNSLRAEDTAVYYCTTKNGNHIGFAYWGQGTTVTVSS VL: DIQMTQSPSSLSASVGDRVTITCRASENIYSNLAWYQQKPGKAPKLLVYAATNLADGVPSRFSGSGSGTDYTLTISSLQPEDFATYYCQHFWGIPWTFGGGTKVEIK |
| – | – | – | 0.00143 | 0.0575 | 0.0623 | humanized anti-OX40 antibody hu9G7-DE (antibody, V domains shown, Constructed as human IgG1 with constant region Ser239, Ala330 and Ile332 mutated to Asp, Leu and Glu; also called humanized antibody 9G7; combination C') VH: EVQLVESGGGLVQPGGSLRLSCAASGFTFSDYYMYWVRQAPGKGLEWVAYISNGDISTYYPDTVKGRFTISRDNAKNSLYLQMNSLRAEDTAVYYCARDDGYSAWFAYWGQGTTVTVSS VL: DIVMTQSPDSLAVSLGERATINCKSSQSLLNSSNQKNYLAWYQQKPGQPPKLLVYFASTRESGVPDRFSGSGSGTDFTLTISSLQAEDVAVYYCQQHYYTPFTFGQGTKLEIK |
| 0.0413 | 0.179 | 0.023 | – | – | – | murine OX40 hybridoma antibody 119H2 (antibody, V domains shown, Purified murine monoclonal hybridoma antibody) VH: EVKLDATGGGLVQPGRPMKLSCVASGFTFSDYWMNWVRQSPEKGLEWVAQIRNKPYNYETFYSDSVKGRFTISRDDSKSSVYLQMNNLRAEDMGIYYCTGYFDYWGQGTTLTVSS VL: DIVLTQSPASLAVSLGQRATISCRASQSVSTSSYSYMHWYQQKPGQPPKLLIKYASNLESGVPARFSGSGSGTDFTLNIHPVEEEDTATYYCQHSWGIPPTFGGGTKLEIKR |

The next lines start with the binder.

| Binder | EC50 [1] [µg/mL] | IC50 of reporter gene assay (NF-kB-luciferase, Jurkat-OX40 cells + OX40L) [2] [µg/mL] | EC50 (OX40-ECD-hFc) [µg/mL] | EC50 of ADCC activity (LDH release, Jurkat-OX40 target cells + PBMC) [3] [µg/mL] | IC50 of reporter gene assay (NF-kB-luciferase, Jurkat-OX40 cells + OX40L) [4] [µg/mL] | EC50 [5] [µg/mL] |
| --- | --- | --- | --- | --- | --- | --- |
| murine OX40 hybridoma antibody 3G4 (antibody, V domains shown, Purified murine monoclonal hybridoma antibody) VH: EVQLQQSGPELVKPGTSVKMSCKASGYRFTSYVLHWVRRKPGQGLEWIGYVNPFNDNTRYNEKFKAKATLTSDKSSSTAYMDLVSLTSEDSAVYYCSRGLYDYSYVMDYWGQGTSVTVSS VL: DIQMTQTTSSLSASLGDGVTITCQASQDIRNYLNWYQQKPDGTIKLLIYHTSKLHSGVPSRFSGGGSGTDFSLTISNLDQEDIATYFCQQSQTLPYTFGGGTKLEIKR | 0.0537 | 0.0361 | 0.0163 | – | – | – |
| murine OX40 hybridoma antibody 177G5 (antibody, V domains shown, Purified murine monoclonal hybridoma antibody) VH: EVQLVESGGGLVKPGGSLKLSCAASGFTFSDFYMYWVRQTPEKRLEWVATISDGGSYTYYPDIVKGRFTISRDNAKNNLNLQMSSLKSDDTAMYYCTTKNGNHIGFAYWGQGTLVTVSA VL: DIQMTQSPASLSVSVGETVTITCRASENIYSNLAWYQQKQGKSPQLLVYAATNLADGVPSRFSGSGSGTQYSLKINSLQSEDFGSYYCQHFWGIPWTFGGGTKLEIKR | 0.0499 | 0.253 | 0.0215 | – | – | – |
| murine OX40 hybridoma antibody 9G7 (antibody, V domains shown, Purified murine monoclonal hybridoma antibody) VH: EVKLVESGGGLVQPGGSLKLSCAASGFTFSDYYMYWVRQTPEKRLEWVAYISNGDISTYYPDTVKGRFTISRDNAKNTLYLQMSRLKSEDTAMYYCARDDGYSAWFAYWGQGTLVTVSA VL: not shown | 0.0369 | ~0.0361 | 0.0198 | – | – | – |
| murine OX40 hybridoma antibody 118A10 (antibody, V domains shown, Purified murine monoclonal hybridoma antibody) VH: EVKLDETGGGLVQPGRPMKLSCVASGFTFSDYWLNWVRQSPEKGLEWVAQIRNKPYHYETFYSESVKGRFTISRDDSKSSVYLQMNDLRGEDTGIYYCTGYFDYWGQGTTLTVSS VL: DIVLTQSPASLTISLGQRATISCRASQSVSTSTYSYIHWYQQKPGQPPRLLIKYASNLESGVPARFSGSGSGTDFTLNIHPVEEEDTATYYCQHSWGIPPTFGGGTKLEIKR | 0.0735 | 0.198 | 0.0249 | – | – | – |
| humanized anti-OX40 antibody hu3G4-DE (antibody, V domains shown, Constructed as human IgG1 with constant region Ser239, Ala330 and Ile332 mutated to Asp, Leu and Glu; also called humanized antibody 3G4; combination B') VH: QVQLVQSGAEVKKPGASVKVSCKASGYRFTSYVLHWVRQAPGQRLEWIGYVNPFNDNTRYNEKFKARATLTSDKSASTAYMELSSLRSEDTAVYYCSRGLYDYSYVMDYWGQGTLVTVSS VL: DIQMTQSPSSLSASVGDRVTITCQASQDIRNYLNWYQQKPGKAPKLLIYHTSKLHSGVPSRFSGSGSGTDFTFTISSLQPEDIATYYCQQSNTLPYTFGQGTKLEIK | – | – | – | 0.00152 | 0.0181 | 0.0713 |
| murine OX40 hybridoma antibody 1G2 (antibody, V domains shown, Purified murine monoclonal hybridoma antibody) VH: EVQLQQSGPDLVKPGASVKMSCKASGYRFTSYVMHWVKQRPGQGLEWIGYINPYNDNTRYNEKFKGKATLTSDKSSSTAYMELSSLTSEDSAVYYCAAYYGDYVYLDYWGQGTTLTVSS VL: DIQMTQTTSSLSASLGDRVTISCRASQDINNYLNWYQQKPDGTVKLLIYYTSRLHSGVPSRFSGSGSGTDYSLIISNLEQEDIATYFCQQGNTLPWTFGGGTKLEIKR | 0.0805 | 0.117 | 0.0157 | – | – | – |

Reference: patent US20250051468A1 (INNOLAKE BIOPHARMA HANGZHOU, published 2025)
